Laboratory results as given in patent US20160264664A1 (Ablynx, published 2016).
Like-named read-outs stand apart in the source and are kept apart here.

B1: P2X7PMP8G11 (VHH)
VHH: AVQLVESGGGLVQAGGSLRLSCAASGNFFRVNTMAWYRQAPGKQRELVADITRGDRTNYADTVNGRFTISRDNVRNTVYLQMNGLRPEDTAAYYCYAVIELGVLEPRDYWGQGTQVTVSS
notes: family 5, 1; on phage or c-myc/His6-tagged in assays; also called 8011
B2: P2X7PMP13A7 (VHH)
VHH: EVQLVESGGGLVQPGESLRLSCTASRFMLDYYDIGWFRQAPGKEREGVSCRFTNDGSTAYADSVKGRFTISRDIVKHTVYLQMNSLQPEDTAVYYCAAGPLTKRRQCVPGDFSMDFWGEGTLVTVSS
notes: family 22; on phage or c-myc/His6-tagged in assays
B3: P2X7PMP14D5 (VHH)
VHH: KVQLVESGGGLVQAGGSLRLSCAASGSPISSYAMGWYRQAPGKPRELVARIYTGGTAWYEDSVKGRFTISRDNAQNTVYLQMNSLKSEDTAVYYCHGRVRYDYWGQGTQVTVSS
notes: family 17; on phage or c-myc/His6-tagged in assays
B4: human chemokine receptor CXCR4 (receptor, UniProt P61073 1-352, looked up)
chain: MEGISIYTSDNYTEEMGSGDYDSMKEPCFREENANFNKIFLPTIYSIIFLTGIVGNGLVILVMGYQKKLRSMTDKYRLHLSVADLLFVITLPFWAVDAVANWYFGNFLCKAVHVIYTVNLYSSVLILAFISLDRYLAIVHATNSQRPRKLLAEKVVYVGVWIPALLLTIPDFIFANVSEADDRYICDRFYPNDLWVVVFQFQHIMVGLILPGIVILSCYCIIISKLSHSKGHQKRKALKTTVILILAFFACWLPYYIGISIDSFILLEIIKQGCEFENTVHKWISITEALAFFHCCLNPILYAFLGAKFKTSAQHALTSVSRGSSLKILSKGKRGGHSSVSTESESSSFHSS
notes: whole, on cells; on transfected HEK293 or camelid (CAKI) cells, or as membrane vesicles / membrane extracts of transfected HEK293 cells; also called hCXCR4

Legend:
human P2X4 = biological target: T1, human P2X4 (human, UniProt Q99571 1-388); experiment: flow cytometry, Nanobody pre-incubated with anti-Myc-FITC
T1 construct: whole, on cells; also called hP2X4
T1 sequence (looked up): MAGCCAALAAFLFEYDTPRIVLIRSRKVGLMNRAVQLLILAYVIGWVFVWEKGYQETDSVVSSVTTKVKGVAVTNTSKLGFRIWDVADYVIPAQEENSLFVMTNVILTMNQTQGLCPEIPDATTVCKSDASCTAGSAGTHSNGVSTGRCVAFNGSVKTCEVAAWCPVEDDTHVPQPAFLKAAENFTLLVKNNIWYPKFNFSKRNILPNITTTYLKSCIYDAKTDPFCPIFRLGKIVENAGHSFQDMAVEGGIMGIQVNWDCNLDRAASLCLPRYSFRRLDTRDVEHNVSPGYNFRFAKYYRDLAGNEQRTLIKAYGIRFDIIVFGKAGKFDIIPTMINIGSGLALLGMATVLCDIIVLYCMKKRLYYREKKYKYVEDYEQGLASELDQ

mouse P2X7 [1] = biological target: T2, mouse P2X7 (mouse, UniProt Q9Z1M0 1-595); experiment: flow cytometry, periplasmic extract pre-incubated with anti-myc-FITC, on mP2X7-Hek293 cells;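 also: periplasmic extract diluted 10-fold and premixed 45 min at 4 °C with FITC anti-myc antibody, giving pseudo-bivalent Nanobodies, before binding to the cells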
T2 construct: on transfected CHO or Hek293 cells, or endogenous on Yac-1 cells; also called mP2X7; mouse purinoceptor P2X7
T2 sequence: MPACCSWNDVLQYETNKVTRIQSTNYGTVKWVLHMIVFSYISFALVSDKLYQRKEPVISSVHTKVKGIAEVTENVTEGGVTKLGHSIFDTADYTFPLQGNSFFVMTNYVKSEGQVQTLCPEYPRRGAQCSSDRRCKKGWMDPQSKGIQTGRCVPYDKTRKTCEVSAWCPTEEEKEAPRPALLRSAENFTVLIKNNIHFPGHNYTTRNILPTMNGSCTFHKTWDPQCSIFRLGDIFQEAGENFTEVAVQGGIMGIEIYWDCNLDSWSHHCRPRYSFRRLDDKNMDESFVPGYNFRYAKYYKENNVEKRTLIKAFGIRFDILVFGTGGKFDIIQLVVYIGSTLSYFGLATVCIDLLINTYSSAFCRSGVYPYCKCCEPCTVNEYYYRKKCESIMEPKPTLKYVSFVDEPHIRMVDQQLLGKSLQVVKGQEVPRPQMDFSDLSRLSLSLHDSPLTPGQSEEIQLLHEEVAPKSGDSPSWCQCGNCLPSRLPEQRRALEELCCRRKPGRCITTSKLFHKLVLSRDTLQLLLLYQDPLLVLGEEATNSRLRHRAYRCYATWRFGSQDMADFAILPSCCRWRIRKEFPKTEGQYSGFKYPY
Procedure: Ten-fold diluted PE were pre-incubation with 0.5 μg anti-myc FITC-conjugated antibodies (AbD Serotec, cat no. MCA2200F) (creating pseudo-bivalent Nanobodies in order to increase binding strength) in 0.1 ml PBS/10% FCS for 45 minutes at 4° C. […] Alternatively, sequential staining of 10-fold diluted PE with anti-myc FITC-conjugated antibodies was done after incubation with the cells.

mouse P2X7 mutant R151A = biological target: T3, mouse P2X7 mutant R151A (mouse, UniProt Q9Z1M0 1-595); experiment: flow cytometry, 1 µM Nanobody on transiently transfected Hek293 cells, normalised to Hano43 staining
T3 construct: transiently transfected Hek293 cells
T3 sequence: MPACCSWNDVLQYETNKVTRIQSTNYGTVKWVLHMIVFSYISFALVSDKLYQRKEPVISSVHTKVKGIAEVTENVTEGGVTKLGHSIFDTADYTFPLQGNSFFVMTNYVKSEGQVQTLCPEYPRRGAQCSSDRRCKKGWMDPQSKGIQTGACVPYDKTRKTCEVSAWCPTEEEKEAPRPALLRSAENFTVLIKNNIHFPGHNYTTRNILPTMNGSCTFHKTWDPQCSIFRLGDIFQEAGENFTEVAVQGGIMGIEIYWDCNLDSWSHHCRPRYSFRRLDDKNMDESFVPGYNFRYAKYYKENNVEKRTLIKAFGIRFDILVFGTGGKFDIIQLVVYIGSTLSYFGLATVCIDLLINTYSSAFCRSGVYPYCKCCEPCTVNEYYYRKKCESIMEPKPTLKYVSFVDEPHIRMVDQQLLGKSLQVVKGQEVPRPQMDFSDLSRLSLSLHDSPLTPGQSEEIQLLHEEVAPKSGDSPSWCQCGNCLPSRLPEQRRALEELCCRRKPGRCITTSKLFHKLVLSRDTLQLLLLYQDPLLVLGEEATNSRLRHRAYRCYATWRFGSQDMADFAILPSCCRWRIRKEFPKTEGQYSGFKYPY
Procedure: For flow cytometric assays, detection of Nanobodies was performed via anti-Myc and subsequent goat anti-mouse-PE conjugate, while an estimation of P2X7 expression densities was obtained via staining with rat monoclonal Hano43 followed by secondary anti-rat-PE conjugate.

mouse P2X7 [2] = biological target: T2, mouse P2X7; experiment: phage ELISA on fixed mP2X7-CHO vs untransfected CHO cells;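 also: phage culture supernatant diluted 10-fold, applied for 1 h to paraformaldehyde-fixed, BSA-blocked cells in 96-well plates, with bound phage read via HRP-linked anti-M13 antibody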
Procedure: (§1) Sub-confluent cells were rinsed with PBS and fixed using 4% paraformaldehyde in PBS for 10 minutes at RT. Fixed cells were washed three times with PBS, and blocked with 2% BSA in PBS for 2 hours. Following blocking, 10-fold diluted culture supernatant containing phage was added and incubated for 1 hour. Cell-bound phage was detected via mouse anti-M13-HRP-conjugate (GE Healthcare, Cat nr. E2886). Rat mAb Hano43 was used as positive control.

mouse P2X7 [3] = biological target: T2, mouse P2X7; experiment: cell-based or functional assay
mouse P2X7 [4] = biological target: T2, mouse P2X7; experiment: cell-based or functional assay; remark: listed apart in the source
mouse P2X7 [5] = biological target: T2, mouse P2X7; experiment: cell-based or functional assay; remark: listed apart in the source
mouse P2X7 [6] = biological target: T2, mouse P2X7; experiment: phage ELISA, mP2X7-CHO vs control CHO cells
Procedure: as §1

human P2X7 = biological target: T4, human P2X7 (human, UniProt Q99572 1-595); experiment: flow cytometry, Nanobody pre-incubated with anti-Myc-FITC
T4 construct: on transfected Hek293 cells; also called hP2X7
T4 sequence: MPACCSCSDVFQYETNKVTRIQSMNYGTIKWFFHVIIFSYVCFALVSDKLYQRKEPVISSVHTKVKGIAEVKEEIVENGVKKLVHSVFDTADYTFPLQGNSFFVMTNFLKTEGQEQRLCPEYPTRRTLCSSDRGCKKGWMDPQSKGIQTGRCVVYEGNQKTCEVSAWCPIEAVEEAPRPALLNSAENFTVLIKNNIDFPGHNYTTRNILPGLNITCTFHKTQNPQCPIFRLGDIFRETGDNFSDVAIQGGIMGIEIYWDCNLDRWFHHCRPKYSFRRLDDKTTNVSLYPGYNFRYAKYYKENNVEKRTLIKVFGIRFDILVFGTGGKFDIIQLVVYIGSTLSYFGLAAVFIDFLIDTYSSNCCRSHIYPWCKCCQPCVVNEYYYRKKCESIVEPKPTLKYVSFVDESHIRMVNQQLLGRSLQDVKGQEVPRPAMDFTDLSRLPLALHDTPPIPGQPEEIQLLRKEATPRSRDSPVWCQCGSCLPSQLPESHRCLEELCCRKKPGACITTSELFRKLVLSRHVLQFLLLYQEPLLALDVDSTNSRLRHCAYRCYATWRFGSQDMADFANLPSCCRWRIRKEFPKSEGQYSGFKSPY

mouse P2X7 [7] = biological target: T2, mouse P2X7; experiment: flow cytometry, purified Nanobody titrated on mP2X7-CHO cells
mouse P2X7 [8] = biological target: T2, mouse P2X7; experiment: cell-based or functional assay; remark: listed apart in the source
Human CXCL12/SDF-1 alpha = biological target: T5, Human CXCL12/SDF-1 alpha (human, UniProt P48061-2 22-89, biotinylated or 125I-labelled); experiment: flow cytometry (Fluorokine kit) on CXCR4-transfected HEK293 but not parental HEK293 cells
T5 construct: also called CXCL12/SDF-la; SDF-1
T5 sequence (P48061 22-89 limits assumed): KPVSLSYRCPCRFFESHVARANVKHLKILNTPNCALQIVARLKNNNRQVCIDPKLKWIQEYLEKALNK
Source text: To verify the functional expression of human CXCR4, the endotoxin-free pVAX1-CXCR4 plasmid was transiently transfected into HEK293 cells using Eugene (Roche) to monitor in vitro extracellular expression via flow cytometry.

| Binder | binding result (human P2X4) | MFI FACS (pre-Myc incubation) (mouse P2X7 [1]) | reduction of binding against WT mP2X7 (mouse P2X7 mutant R151A) | Fold Cho P2X7/wt (phage ELISA) (mouse P2X7 [2]) | IC50 (read off the curve) (mouse P2X7 [3]) | ATP IC50 by 2 uM NB (head prints 'mM'; ligand titration at fixed Nanobody, CD62L shedding, Yac-1 cells) (mouse P2X7 [4]) | IC50 (nM) against 20 uM NAD (CD62L shedding, Yac-1 cells) (mouse P2X7 [4]) | IC50 (nM) against 100 uM ATP (CD62L shedding, Yac-1 cells) (mouse P2X7 [4]) | IC50 (read off the curve) (mouse P2X7 [5]) | absorption ratio (ELISA) (mouse P2X7 [6]) | binding result (human P2X7) | EC50 (mouse P2X7 [7]) | EC50, enhancement of CD62L-ectodomain shedding at 1.5 µM NAD (mouse P2X7 [8]) | EC50, enhancement of CD62L-ectodomain shedding at 33 µM ATP (mouse P2X7 [8]) | binding result (Human CXCL12/SDF-1 alpha) |
| --- | --- | --- | --- | --- | --- | --- | --- | --- | --- | --- | --- | --- | --- | --- | --- |
| B1 | no binding (tested: 147 nM) | 166 MFI | > 90% | 26 fold | ~60 nM | 0.389 mM | 68 nM | 37 nM | ~20 nM | 26 ratio |  |  |  |  |  |
| B2 | no binding (tested: 147 nM) |  |  | 25 fold | ~4 nM | 0.565 mM | 11 nM | 6 nM | ~1 nM |  | no binding (tested: 147 nM) | 3.4 nM |  |  |  |
| B3 | no binding (tested: 147 nM) |  |  | 8 fold |  | 0.016 mM |  |  |  |  |  |  | 4.1 nM | 22.6 nM |  |
| B4 |  |  |  |  |  |  |  |  |  |  |  |  |  |  | binds |
